One molecule from US7871797B2, “DNA encoding a bacterial protease for degrading gelatin and collagen” (Jellice Co., Ltd., priority 2003, dated 2011) can be followed below.

The data set can be described thus: Temperature stability of the enzyme. Particulars: then 30 min at 37° C. with substrate. In kind it is physicochemical. The protocol:
i) Temperature Stability • The enzyme was left standing for one hour at various temperatures of from 0 to 60° C. and subsequently reacted with a synthetic substrate for 30 min at 37° C. Enzyme activity was then measured.

B1: protease of the present invention: protease of molecular weight 21,000±1,000 from Aureobacterium sp. MIM-CG-9535-I cutting specific Gly-Phe and Ser-Leu sites (protein, listed as Aureobacterium sp.)
chain: LIVNTVNSIDDKWSDAQASALTYCVSTAFGARHADVVSAMESGAALWEAASSKIDFIYDSSADANCTTRNNAVLFSVEPVQTTQYIARAFFPSTAPRLQNVLIDDSIWTPGSSWTPTNVLGHELGHVLGFRHEHTRPEAGTCFEDDNWRPLTPYDSSSIMHYPQCNGSSADLSMTSVDTDGVVALYGN
Turning to B1, the “Temperature stability: residual activity” value (left standing one hour at 30° C.) is given as “about half”. Besides, the Temperature stability result (left standing one hour at 40° C. and above) is reported as “nearly deactivated”.
